Km and kcat data for one protein are collected here from article PMC10371975, “Potential of Y. lipolytica epoxide hydrolase for efficient production of enantiopure (R)-1,2-octanediol” (AMB Express, 2023).

Substrate in the data set: CCCCCCC1CO1
The data set is described as follows: purified protein. The note with it: 50 mM Tris-sulphate pH 8.0, 30 °C, 0.1-0.7 mM EO, 1 µg enzyme. It is filed as biochemical, Yarrowia lipolytica.

B1: Yleh (Yarrowia lipolytica CLIB122) (protein)
chain: MTDSLSLGYYQLFHKYAVLGDKRWHYLDIPPTSPSPALLGSGKTLMLCHGFPDSWYGWRKQIPILRNLGYRLLVPSQMGYTRSEAPLYPTPEPNEKGEYPELGLEDGTDALKDLYCYTGKFYAQCMDELLTQLGIPTVTIIGHDYGAYLGPKLYLYFPHRVEAIATSCWHYVPALKKFFAIPDFIKLAPSLSYQAYLIGDASKDFATREGSEPFLRQVFGGEGWGGSDSSVHMTEPEFQNYMTEFATGGRFLSYMVSTYKARRLTFEIEKQDFLDKGRTPESMQVDVPYLHVGAEQDMAFRPPMIKNLRKYVKPGRLDEVWIDASHWLMFEKADEFNHELVKWLDKIHGSQSKL
notes: recombinant full-length 354-residue protein (ORF 1065 bp), pET28a+ vector, E. coli BL21AI host, Ni-NTA plus size exclusion purification (His tag implied); distinct from bifunctional Ylehd of the same yeast
The Km is the concentration of substrate that gives half-maximal velocity. The kcat is the number of substrate molecules converted per active site and unit of time at saturation. For the protein B1, the Km came to 430 ± 17 µM and the kcat came to 3.3458 ± 0.2163 s⁻¹.
